Measured values from paper doi:10.1101/2020.02.22.960815 (bioRxiv, 2020).

Target: the molecule itself
Assay: cryo-EM structure

| Protein | stoichiometry N | binding result |
| --- | --- | --- |
| human potassium-chloride co-transporter 3 (KCC3), full length, wild type (natural protein, UniProt Q9UHW9-2 1-1099, looked up, phosphorylated threonine built on T940 and T997 (from the cryo-EM map and mass spectra); carbohydrate chains) MPHFTVTKVEDPEEGAAASISQEPSLADIKARIQDSDEPDLSQNSITGEHSQLLDDGHKKARNAYLNNSNYEEGDEYFDKNLALFEEEMDTRPKVSSLLNRMANYTNLTQGAKEHEEAENITEGKKKPTKTPQMGTFMGVYLPCLQNIFGVILFLRLTWVVGTAGVLQAFAIVLICCCCTMLTAISMSAIATNGVVPAGGSYFMISRALGPEFGGAVGLCFYLGTTFAAAMYILGAIEIFLVYIVPRAAIFHSDDALKESAAMLNNMRVYGTAFLVLMVLVVFIGVRYVNKFASLFLACVIVSILAIYAGAIKSSFAPPHFPVCMLGNRTLSSRHIDVCSKTKEINNMTVPSKLWGFFCNSSQFFNATCDEYFVHNNVTSIQGIPGLASGIITENLWSNYLPKGEIIEKPSAKSSDVLGSLNHEYVLVDITTSFTLLVGIFFPSVTGIMAGSNRSGDLKDAQKSIPIGTILAILTTSFVYLSNVVLFGACIEGVVLRDKFGDAVKGNLVVGTLSWPSPWVIVIGSFFSTCGAGLQSLTGAPRLLQAIAKDNIIPFLRVFGHSKANGEPTWALLLTAAIAELGILIASLDLVAPILSMFFLMCYLFVNLACALQTLLRTPNWRPRFRYYHWALSFMGMSICLALMFISSWYYAIVAMVIAGMIYKYIEYQGAEKEWGDGIRGLSLSAARFALLRLEEGPPHTKNWRPQLLVLLKLDEDLHVKHPRLLTFASQLKAGKGLTIVGSVIVGNFLENYGEALAAEQTIKHLMEAEKVKGFCQLVVAAKLREGISHLIQSCGLGGMKHNTVVMGWPNGWRQSEDARAWKTFIGTVRVTTAAHLALLVAKNISFFPSNVEQFSEGNIDVWWIVHDGGMLMLLPFLLKQHKVWRKCSIRIFTVAQLEDNSIQMKKDLATFLYHLRIEAEVEVVEMHDSDISAYTYERTLMMEQRSQMLRHMRLSKTERDREAQLVKDRNSMLRLTSIGSDEDEETETYQEKVHMTWTKDKYMASRGQKAKSMEGFQDLLNMRPDQSNVRRMHTAVKLNEVIVNKSHEAKLVLLNMPGPPRNPEGDENYMEFLEVLTEGLERVLLVRGGGSEVITIYS | 2 | – |
| KCC3 phosphorylation mimic mutant S45E/T940E/T997E (natural protein, human, UniProt Q9UHW9-2 1-1099, looked up) MPHFTVTKVEDPEEGAAASISQEPSLADIKARIQDSDEPDLSQNEITGEHSQLLDDGHKKARNAYLNNSNYEEGDEYFDKNLALFEEEMDTRPKVSSLLNRMANYTNLTQGAKEHEEAENITEGKKKPTKTPQMGTFMGVYLPCLQNIFGVILFLRLTWVVGTAGVLQAFAIVLICCCCTMLTAISMSAIATNGVVPAGGSYFMISRALGPEFGGAVGLCFYLGTTFAAAMYILGAIEIFLVYIVPRAAIFHSDDALKESAAMLNNMRVYGTAFLVLMVLVVFIGVRYVNKFASLFLACVIVSILAIYAGAIKSSFAPPHFPVCMLGNRTLSSRHIDVCSKTKEINNMTVPSKLWGFFCNSSQFFNATCDEYFVHNNVTSIQGIPGLASGIITENLWSNYLPKGEIIEKPSAKSSDVLGSLNHEYVLVDITTSFTLLVGIFFPSVTGIMAGSNRSGDLKDAQKSIPIGTILAILTTSFVYLSNVVLFGACIEGVVLRDKFGDAVKGNLVVGTLSWPSPWVIVIGSFFSTCGAGLQSLTGAPRLLQAIAKDNIIPFLRVFGHSKANGEPTWALLLTAAIAELGILIASLDLVAPILSMFFLMCYLFVNLACALQTLLRTPNWRPRFRYYHWALSFMGMSICLALMFISSWYYAIVAMVIAGMIYKYIEYQGAEKEWGDGIRGLSLSAARFALLRLEEGPPHTKNWRPQLLVLLKLDEDLHVKHPRLLTFASQLKAGKGLTIVGSVIVGNFLENYGEALAAEQTIKHLMEAEKVKGFCQLVVAAKLREGISHLIQSCGLGGMKHNTVVMGWPNGWRQSEDARAWKTFIGTVRVTTAAHLALLVAKNISFFPSNVEQFSEGNIDVWWIVHDGGMLMLLPFLLKQHKVWRKCSIRIFTVAQLEDNSIQMKKDLATFLYHLRIEAEVEVVEMHDSDISAYTYERELMMEQRSQMLRHMRLSKTERDREAQLVKDRNSMLRLTSIGSDEDEETETYQEKVHMEWTKDKYMASRGQKAKSMEGFQDLLNMRPDQSNVRRMHTAVKLNEVIVNKSHEAKLVLLNMPGPPRNPEGDENYMEFLEVLTEGLERVLLVRGGGSEVITIYS | – | binds |
| KCC3 dephosphorylation mimic mutant S45A/T940V/T997V (natural protein, human, UniProt Q9UHW9-2 1-1099, looked up) MPHFTVTKVEDPEEGAAASISQEPSLADIKARIQDSDEPDLSQNAITGEHSQLLDDGHKKARNAYLNNSNYEEGDEYFDKNLALFEEEMDTRPKVSSLLNRMANYTNLTQGAKEHEEAENITEGKKKPTKTPQMGTFMGVYLPCLQNIFGVILFLRLTWVVGTAGVLQAFAIVLICCCCTMLTAISMSAIATNGVVPAGGSYFMISRALGPEFGGAVGLCFYLGTTFAAAMYILGAIEIFLVYIVPRAAIFHSDDALKESAAMLNNMRVYGTAFLVLMVLVVFIGVRYVNKFASLFLACVIVSILAIYAGAIKSSFAPPHFPVCMLGNRTLSSRHIDVCSKTKEINNMTVPSKLWGFFCNSSQFFNATCDEYFVHNNVTSIQGIPGLASGIITENLWSNYLPKGEIIEKPSAKSSDVLGSLNHEYVLVDITTSFTLLVGIFFPSVTGIMAGSNRSGDLKDAQKSIPIGTILAILTTSFVYLSNVVLFGACIEGVVLRDKFGDAVKGNLVVGTLSWPSPWVIVIGSFFSTCGAGLQSLTGAPRLLQAIAKDNIIPFLRVFGHSKANGEPTWALLLTAAIAELGILIASLDLVAPILSMFFLMCYLFVNLACALQTLLRTPNWRPRFRYYHWALSFMGMSICLALMFISSWYYAIVAMVIAGMIYKYIEYQGAEKEWGDGIRGLSLSAARFALLRLEEGPPHTKNWRPQLLVLLKLDEDLHVKHPRLLTFASQLKAGKGLTIVGSVIVGNFLENYGEALAAEQTIKHLMEAEKVKGFCQLVVAAKLREGISHLIQSCGLGGMKHNTVVMGWPNGWRQSEDARAWKTFIGTVRVTTAAHLALLVAKNISFFPSNVEQFSEGNIDVWWIVHDGGMLMLLPFLLKQHKVWRKCSIRIFTVAQLEDNSIQMKKDLATFLYHLRIEAEVEVVEMHDSDISAYTYERVLMMEQRSQMLRHMRLSKTERDREAQLVKDRNSMLRLTSIGSDEDEETETYQEKVHMVWTKDKYMASRGQKAKSMEGFQDLLNMRPDQSNVRRMHTAVKLNEVIVNKSHEAKLVLLNMPGPPRNPEGDENYMEFLEVLTEGLERVLLVRGGGSEVITIYS | – | binds |
| human potassium-chloride co-transporter 2 (KCC2), full length (natural protein, UniProt Q9H2X9-2 1-1116, looked up) MLNNLTDCEDGDGGANPGDGNPKESSPFINSTDTEKGKEYDGKNMALFEEEMDTSPMVSSLLSGLANYTNLPQGSREHEEAENNEGGKKKPVQAPRMGTFMGVYLPCLQNIFGVILFLRLTWVVGIAGIMESFCMVFICCSCTMLTAISMSAIATNGVVPAGGSYYMISRSLGPEFGGAVGLCFYLGTTFAGAMYILGTIEILLAYLFPAMAIFKAEDASGEAAAMLNNMRVYGTCVLTCMATVVFVGVKYVNKFALVFLGCVILSILAIYAGVIKSAFDPPNFPICLLGNRTLSRHGFDVCAKLAWEGNETVTTRLWGLFCSSRFLNATCDEYFTRNNVTEIQGIPGAASGLIKENLWSSYLTKGVIVERSGMTSVGLADGTPIDMDHPYVFSDMTSYFTLLVGIYFPSVTGIMAGSNRSGDLRDAQKSIPTGTILAIATTSAVYISSVVLFGACIEGVVLRDKFGEAVNGNLVVGTLAWPSPWVIVIGSFFSTCGAGLQSLTGAPRLLQAISRDGIVPFLQVFGHGKANGEPTWALLLTACICEIGILIASLDEVAPILSMFFLMCYMFVNLACAVQTLLRTPNWRPRFRYYHWTLSFLGMSLCLALMFICSWYYALVAMLIAGLIYKYIEYRGAEKEWGDGIRGLSLSAARYALLRLEEGPPHTKNWRPQLLVLVRVDQDQNVVHPQLLSLTSQLKAGKGLTIVGSVLEGTFLENHPQAQRAEESIRRLMEAEKVKGFCQVVISSNLRDGVSHLIQSGGLGGLQHNTVLVGWPRNWRQKEDHQTWRNFIELVRETTAGHLALLVTKNVSMFPGNPERFSEGSIDVWWIVHDGGMLMLLPFLLRHHKVWRKCKMRIFTVAQMDDNSIQMKKDLTTFLYHLRITAEVEVVEMHESDISAYTYEKTLVMEQRSQILKQMHLTKNEREREIQSITDESRGSIRRKNPANTRLRLNVPEETAGDSEEKPEEEVQLIHDQSAPSCPSSSPSPGEEPEGEGETDPEKVHLTWTKDKSVAEKNKGPSPVSSEGIKDFFSMKPEWENLNQSNVRRMHTAVRLNEVIVKKSRDAKLVLLNMPGPPRNRNGDENYMEFLEVLTEHLDRVMLVRGGGREVITIYS | 2 | – |
